This sample holds only a part of the variants without activity.

Data set [1] deals with biotinyl-Phe-oxazolone. Put plainly: self-aminoacylation, catalytic enhancement (BFO) (fold over background); higher = more active; k-Seq, kA / k0A0; sequences stand for … in GGGAAUGGAUCCACAUCUACGAAUUC…UUCACUGCAGACUUGACGAAGCUG
In outline: (§1)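 The uncatalyzed rate is the low-activity peak of a bimodal Gaussian fit, and catalytic enhancement is median kA divided by it. The kA values came from pseudo-first-order fits, with 1000 bootstraps, of per-sequence fraction reacted measured by streptavidin capture, triplicate qPCR and Illumina sequencing. Mutagenized RNA pools with a 21-nt variable region (0.43 μM) were reacted with each biotinyl-aminoacyl-oxazolone at 2–1250 μM in 50 μL HEPES/NaCl/KCl/MgCl2/CaCl2 buffer with 5% acetonitrile, pH 6.9–7.0, for 90 minutes at room temperature.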

In data set [2] the test system is biotinyl-Ile-oxazolone. Briefly: self-aminoacylation, catalytic enhancement (BIO) (fold over background); higher = more active; k-Seq, kA / k0A0; sequences stand for … in GGGAAUGGAUCCACAUCUACGAAUUC…UUCACUGCAGACUUGACGAAGCUG
In outline: as §1

The subject of data set [3] is biotinyl-Met-oxazolone. Put plainly: self-aminoacylation, catalytic enhancement (BMO) (fold over background); higher = more active; k-Seq, kA / k0A0; sequences stand for … in GGGAAUGGAUCCACAUCUACGAAUUC…UUCACUGCAGACUUGACGAAGCUG
An outline of the steps:
as §1

Data set [4] has as its system biotinyl-Val-oxazolone. Put plainly: self-aminoacylation, catalytic enhancement (BVO) (fold over background); higher = more active; k-Seq, kA / k0A0; sequences stand for … in GGGAAUGGAUCCACAUCUACGAAUUC…UUCACUGCAGACUUGACGAAGCUG
An outline of the steps: as §1

For data set [5], the system named is biotinyl-Leu-oxazolone. Put plainly: self-aminoacylation, catalytic enhancement (BLO) (fold over background); higher = more active; k-Seq, kA / k0A0; sequences stand for … in GGGAAUGGAUCCACAUCUACGAAUUC…UUCACUGCAGACUUGACGAAGCUG
An outline of the steps:
as §1

Data set [6] relates to biotinyl-Trp-oxazolone. Put plainly: self-aminoacylation, catalytic enhancement (BWO) (fold over background); higher = more active; k-Seq, kA / k0A0; sequences stand for … in GGGAAUGGAUCCACAUCUACGAAUUC…UUCACUGCAGACUUGACGAAGCUG
In outline: as §1

“AUUACCUUGGUCUUCGAGUGA [Fam2.1 aminoacylation ribozyme variant]”: the self-aminoacylation in data set [1] was determined as 32.9; in data set [2], 3.43; in data set [3] it was 6.13; in data set [4], 4.04; in data set [5], 6.52; in data set [6] it was 7.78.

“UUUACCCUGGUUAUCGAGUGA [Fam2.1 aminoacylation ribozyme variant]”: the self-aminoacylation in data set [1] was 25.7; in data set [2], 4.28; in data set [3], 7.81; in data set [4] it was 4.19; in data set [5], 7.57; in data set [6] it was 10.6.

As to “AUGACCCUGGUCAUCCAGUGA [Fam2.1 aminoacylation ribozyme variant]”, the self-aminoacylation was 38.6 in data set [1]; 3.84 in data set [2]; 6.57 in data set [3]; 3.16 in data set [4]; 7.02 in data set [5]; 7.7 in data set [6].

“AAGUUUGCGAAUAGUCGAAAG [Fam3.1 aminoacylation ribozyme variant]”: the self-aminoacylation in data set [1] was 0.796; in data set [2] it was 1.05; in data set [3], 1.17; in data set [4], 0.733; in data set [5], 1.11; in data set [6], 0.83.

Take “AUAAACCUAGGUCAUCGGGUG [Fam2.2 aminoacylation ribozyme variant]”: the self-aminoacylation was 20.4 in data set [1]; 2.57 in data set [2]; 3.29 in data set [3]; 2.43 in data set [4]; 4.39 in data set [5]; 3.73 in data set [6].

On to “CCACAAGUCAAGCAAUCGGUC [Fam1B.1 aminoacylation ribozyme variant]”, for which the self-aminoacylation in data set [1] was 1.15; in data set [2], 1.64; in data set [3], 1.67; in data set [4], 1.54; in data set [5] it was 1.49; in data set [6], 1.32.

Take “CCAAUUCAAACAAUCGGUCUG [Fam1A.1 aminoacylation ribozyme variant]”: the self-aminoacylation was determined as 6.78 in data set [1]; 1.11 in data set [2]; 1.02 in data set [3]; 1.11 in data set [4]; 1.16 in data set [5]; 5.22 in data set [6].

Take “AAAUUUGCUAAUAGUCACAAG [Fam3.1 aminoacylation ribozyme variant]”: the self-aminoacylation in data set [1] is 2.81; in data set [2] it was 1.58; in data set [3], 1.62; in data set [4] it was 1.49; in data set [5], 1.26; in data set [6], 1.71.

In the case of “AUUCGCGUAGGUCAUCGGGUG [Fam2.2 aminoacylation ribozyme variant]”, the self-aminoacylation came out at 57.5 in data set [1]; 5.25 in data set [2]; 8.32 in data set [3]; 4.87 in data set [4]; 8.56 in data set [5]; 7.24 in data set [6].

Take “AUGCACCUAGGUCAUUGGGUG [Fam2.2 aminoacylation ribozyme variant]”: the self-aminoacylation in data set [1] came out at 16.6; in data set [2], 2.33; in data set [3], 2.3; in data set [4] it was 2.16; in data set [5] it was 2.53; in data set [6], 2.72.

For “AUUAUCUUGGUCAUCGAGUGA [Fam2.1 aminoacylation ribozyme variant]”, the self-aminoacylation in data set [1] is 12.4; in data set [2], 3.54; in data set [3], 5.16; in data set [4], 3.11; in data set [5], 5.73; in data set [6], 6.57.

With “AAUUUUGCUAUUAGUCGCAAG [Fam3.1 aminoacylation ribozyme variant]”, the self-aminoacylation in data set [1] was 2.76; in data set [2], 1.98; in data set [3], 1.71; in data set [4], 1.63; in data set [5] it was 1.89; in data set [6], 1.85.

“AUUAACCUAGGUUAUCGGGUG [Fam2.2 aminoacylation ribozyme variant]”: the self-aminoacylation in data set [1] turned out to be 17.9; in data set [2], 2.5; in data set [3], 3.1; in data set [4], 2.19; in data set [5] it was 3.46; in data set [6], 2.84.

In the case of “AGGUUUGCUAAUAGUCGCGAG [Fam3.1 aminoacylation ribozyme variant]”, the self-aminoacylation in data set [1] turned out to be 2.48; in data set [2] it was 1.56; in data set [3] it was 1.65; in data set [4] it was 1.78; in data set [5] it was 1.61; in data set [6], 2.59.

Consider “CUAUUUGAAACAAUCGGUCUG [Fam1A.1 aminoacylation ribozyme variant]”, for which the self-aminoacylation in data set [1] was found to be 0.697; in data set [2], 0.803; in data set [3], 0.815; in data set [4] it was 0.707; in data set [5], 0.779; in data set [6], 0.463.

Take “CUAAUUCAAACAAUCGGUCAG [Fam1A.1 aminoacylation ribozyme variant]”: the self-aminoacylation in data set [1] came to 1.46; in data set [2], 0.602; in data set [3], 0.583; in data set [4], 0.546; in data set [5] it was 0.566; in data set [6], 0.765.

“CUACACUUCAAGCAAUCGGUU [Fam1B.1 aminoacylation ribozyme variant]”: the self-aminoacylation is 9.78 in data set [1]; 1.29 in data set [2]; 1.47 in data set [3]; 1.27 in data set [4]; 1.46 in data set [5]; 7.05 in data set [6].

Regarding “AUUCCCCUGGUCGUCGAGUGA [Fam2.1 aminoacylation ribozyme variant]”, the self-aminoacylation in data set [1] was 6.18; in data set [2], 1.48; in data set [3] it was 1.42; in data set [4], 1.33; in data set [5] it was 1.71; in data set [6] it was 1.52.

For “AAGUUUGCUAAUAGUCCCAAC [Fam3.1 aminoacylation ribozyme variant]”, the self-aminoacylation in data set [1] amounted to 1.04; in data set [2] it was 0.639; in data set [3], 0.505; in data set [4], 0.643; in data set [5], 0.585; in data set [6], 0.629.

Take “AUUCACGUAGGACAUCGGGUG [Fam2.2 aminoacylation ribozyme variant]”: the self-aminoacylation was found to be 24.5 in data set [1]; 3.6 in data set [2]; 5.02 in data set [3]; 4.37 in data set [4]; 5.61 in data set [5]; 5.55 in data set [6].

With “UUGCACCUAGGUCAUCGGGUG [Fam2.2 aminoacylation ribozyme variant]”, the self-aminoacylation in data set [1] was 38.8; in data set [2] it was 3.11; in data set [3], 3.89; in data set [4], 3.66; in data set [5], 4.63; in data set [6], 5.53.

Take “AUUCACCAAGUUCAUCGGGUG [Fam2.2 aminoacylation ribozyme variant]”: the self-aminoacylation in data set [1] was found to be 19.8; in data set [2] it was 3.06; in data set [3], 3.58; in data set [4] it was 2.89; in data set [5] it was 4.31; in data set [6], 4.14.

Turning to “AAGUUUGCUAAUAGUCGCAUG [Fam3.1 aminoacylation ribozyme variant]”, the self-aminoacylation in data set [1] amounted to 1.47; in data set [2], 1.03; in data set [3] it was 0.93; in data set [4], 0.916; in data set [5] it was 0.932; in data set [6] it was 0.976.

(Values after the supplement of paper PMC9233669.)
